Source: publication PMC8529511

biological target: Trypsin (UniProt P00761); test: enzyme inhibition assay

| Ki [nM] | Substance |
| --- | --- |
| 0.1 | C14-EETI-II (myristoyl, C14:0, fatty acylated EETI-II) (peptide) |
| 0.132 | C16-EETI-II (palmitoyl, C16:0, fatty acylated EETI-II) (peptide) |
| 0.125 | C18-EETI-II (stearoyl, C18:0, fatty acylated EETI-II; octadecanedioic acid conjugate) (peptide) |
| 0.102 | C12-EETI-II (lauroyl, C12:0, fatty acylated EETI-II) (peptide) |
